The results in this text go back to publication PMC10063446 (Nature Immunology, 2023).

Where two headings read alike, the source gives them in different places.

For test [1], the target named is recombinant wild-type SARS-CoV-2 S trimer (ELISA antigen) (SARS-CoV-2 wild-type, UniProt P0DTC2).
For test [2], the target named is T1, recombinant RBD protein of wild-type SARS-CoV-2 (ELISA antigen) (SARS-CoV-2 wild-type, UniProt P0DTC2).
Test [3] concerns the target T1, recombinant RBD protein of wild-type …. The experiment in a line: ELISA. To be noted: one partner purified. Background: In an ELISA, binding on a coated surface is turned into a signal by an enzyme label.
The target of test [4] is SARS-CoV-2 RBD immobilised on the CM5 chip (SARS-CoV-2 wild-type (assumed)). The experiment in a line: SPR. The settings on record: both partners purified.
Test [5] addresses T2, SARS-CoV-2 wild-type RBD (SARS-CoV-2 wild-type).
T2 construct: also called WT-RBD
The experiment in a line: crystal structure. To be noted: both partners purified.

B1: P5S-2G8 (antibody, V domains shown)
VH: QMQLVQSGAEVKKTGSSVKVSCKASGSTFTHRYLHWVRQAPGQALEWMGWITPFNGDTNYAQKFQDRVTITRDGSMSTVYMDLSSLRSEDTAMYYCAAGARWGDSYYYYGMDVWGQGTAVTVSS
VL: QSALTQPPSASGSPGQSVTISCTGTSSDVGGYNYVSWYQQHPDKAPKLMIYEVSKRPSGVPDRFSGSKSGNTASLTVSGLQAEDEADYYCSSYAGNNNLVFGTGTKVTVL
Consider B1, for which the binding result in test [1] and in test [2] was “binds” each time.

B2: P195-2B9 (antibody, V domains shown)
VH: QVQLQESGPGLVKPSETLSLTCTVSGGSSSSHFWSWIRQPPGKGLEWIGYIYYGGNTNYNPSLKSRVTISVDTSKSQFSLKLSSVTAADTAVYYCARHHYYYDSSDFRLKAGYYFDYWGQGTLVAVSS
VL: QSVLTQPPSVSGAPGQRVTISCTGSSSNIGAGYDVHWYQQLPGTAPKLLIFDNNDRPSGVPDRFSGSKSDTSASLAITGLQAEDEADYYCQSYDSSLISWVFGGGTKLTLL
Regarding B2, the binding result in test [1] and in test [2] was “binds” each time.

B3: P5-1C8 (full IgG1) (antibody, V domains shown)
VH: EVQLVESGGGLIQPGGSLRLSCAASEIIVSRNYMNWVRQAPGKGLEWVSVIYSGGSTFYADSVKGRFTISRDNSENTLYLQMNSLRAEDTAVYYCARGYGDYYFDYWGRGTLVTVSS
VL: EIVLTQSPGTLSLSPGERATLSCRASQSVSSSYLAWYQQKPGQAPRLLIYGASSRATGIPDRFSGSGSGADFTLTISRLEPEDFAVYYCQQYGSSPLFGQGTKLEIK
On to B3, for which the binding result in test [3] and in test [4] was “binds” in each case.

B4: P5-1H1 (full IgG1) (antibody, V domains shown)
VH: EVQLVESGGGLIQPGGSLRLSCAASGITVSSNYMTWVRQPPGKGLEWVSVIYSGGSTFYADPVKGRFTISRDNSRNTLYLQMNSLRAEDTAVYYCARDLQVYGMDVWGQGTTVTVSS
VL: DIQLTQSPSFLSASVGDRVTITCRASQGISNFLAWYQQKPGKAPKLLIYAASTLQGGVPSTFSGSGSGTEFTLTISSLQPEDFATYYCQHLNDYPLFGGGTRVEIK
With B4, the binding result in test [3] and in test [4] was “binds” in each case.

B5: P5-1H1 Fab (Fab, V domains shown)
VH: B4 VH
VL: B4 VL
Regarding B5, the binding result in test [5] was “binds”.

B6: P2-1B1 (full IgG1) (antibody, V domains shown)
VH: QVQLVQSGAEVKRPGSSVKVSCKASGGTFSSYAISWVRQAPGQGPEWMGGIIPIFGTPHNAQKFQGRVTITADESTSTAYMELSSLRSEDTAMYYCSRTKGDILTGYTDYYFDSWGQGTLVTVSS
VL: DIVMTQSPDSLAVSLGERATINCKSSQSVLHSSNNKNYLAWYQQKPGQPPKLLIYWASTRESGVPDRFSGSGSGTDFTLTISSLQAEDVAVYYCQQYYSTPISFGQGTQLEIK
With B6, the binding result in test [3] and in test [4] was “binds” each time.

B7: P5-2B9 (antibody, V domains shown)
VH: EVQLVQSGAEVKKPGESLKISCKGSGHSFTSFWIGWVRQMPGKGLEWMGIIYPGDSETRYSPSFQGQVTISVDKSIFTAYLQWSSLKASDSAMYYCARISGKGVGWFDPWGQGTLVTVSS
VL: SYVLTQPPSVSVAPGQTARITCGGNNIGSKSVHWYQQKPGQAPVLVIYYDSDRPSGIPERFSGSNSGNTATLTISRVEAGDEADYYCQVWHSSSDHVVFGGGTKLTVL
For B7, the binding result in test [1] and in test [2] was “binds” throughout.
